Reference: publication PMC4081097

Target: T1, AbaSI-C3S (Acinetobacter baumannii SDF, UniProt B0VN39 1-321, C2S;C309S;C321S)
T1 sequence: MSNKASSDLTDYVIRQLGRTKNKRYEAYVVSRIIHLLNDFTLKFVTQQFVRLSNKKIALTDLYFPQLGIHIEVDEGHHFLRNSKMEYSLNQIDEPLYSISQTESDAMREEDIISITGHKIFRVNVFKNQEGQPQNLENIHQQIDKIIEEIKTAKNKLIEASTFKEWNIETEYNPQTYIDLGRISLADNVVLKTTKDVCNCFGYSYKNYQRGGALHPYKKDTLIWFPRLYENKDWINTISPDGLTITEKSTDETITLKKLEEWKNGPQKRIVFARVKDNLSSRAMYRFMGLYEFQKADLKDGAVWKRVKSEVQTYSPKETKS
Assay: X-ray crystallography

B1: 14+4 product DNA (dsDNA)
DNA 1: TGCTCGATACAATAGGCC
DNA 2: TATTGTATCGAGCA
modifications: 5hmC at top position 5
  binding result: binds
